Data reported in article PMC3956926, “Acetate Kinase Isozymes Confer Robustness in Acetate Metabolism” (PLoS ONE, 2014).

B1: AckA1 (Lactococcus cremoris subsp. cremoris MG1363) (protein)
chain: MTKTLAVNAGSSSMKWQMYEMPEEKVLAKGLIERIGLKDSIVTVKFGEEKEERVFDIPNHTEAVEVLLEDLKRLKIVEEFTEITGVGHRVVAGGEIFQKSTVVTPEVLQQVKDLSALAPLHNPANAAGIEAFLNLLPDATSVVVFDTAFHTTMPEKAFRYPLPKKYYTDYAVRKYGAHGTSHMYVSQEAAKLLGKPIEETKIITAHIGNGASITAVKGGESVDTSMGFTPLAGVMMGTRTGEMDPSVFPYLIENDSELKDAQDVVDMMNKESGLYGVSGISSDMRDIIAAKDTDADAKLAFEMYVDRIQKFIGQYLAVLNGADALVFTAGIGENSVPVREAILSGLTWFGIEVDPEKNVFGVEGEISKPSSRLKVFVIPTDEELVIARDVEALKK
notes: His-tagged (vector pQE30, N-terminal tag kept), from E. coli M15 pREP4 groESL, Ni-NTA; 100 kDa by gel filtration, monomer 43 kDa, homodimer; residue V331 in ATP site
B2: AckA2 (Lactococcus cremoris subsp. cremoris MG1363) (protein)
chain: MEKTLAVNAGSSSLKWQLYEMPEETVIAKGIFERIGLSGSISTTKFNNEEHVRKQEIVDHRQAVLLLMDELIHFQLIHEFREITGIGHRVVAGGEFFKDSTIITPEVLAEIKNLSTLAPLHNPANVLGIEAFQRLLPDALAVAVFDTAFHSTLPEKAYRYPIPTKYYEDYSIRKYGAHGTSHMYVAQEAAKVLGKPLEELKIITAHIGNGASITAIEGGKSVDTSMGFTPLAGVMMGTRAGEMDASVIPYMLESDPSLRNAQDVIDILNKESGVLGVSELSSDMRDLSEAVAKGNPKAILAYEMYVDRLKKFIAQYFGVLNGADALIFTAGVGENDTAVRTDVVNGLSWFGMEIDESKNVRGAFGIISKPESKVKVLVVPTNEELVIARDVEAAK
notes: His-tagged (vector pQE30, N-terminal tag kept), from E. coli M15 pREP4 groESL, Ni-NTA; 84 kDa by gel filtration, monomer 43 kDa, homodimer; residue I331 in ATP site

Experiments:
Test in all cases: purified protein
purified protein [1] = substrate: CC(=O)O; conditions: OAc to Ac-P, varying ATP, 4.2 mM MgCl2, 100 mM HEPES, 400 mM potassium glutamate, pH 7.5, apparent Km
purified protein [2] = substrate: Nc1ncnc2c1ncn2[C@@H]1O[C@H](COP(=O)(O)OP(=O)(O)O)[C@@H](O)[C@H]1O; type: biochemical, Lactococcus cremoris; conditions: Ac-P to OAc, varying Ac-P, 5 mM MgSO4, 100 mM HEPES, 400 mM potassium glutamate, pH 7.5
purified protein [3] = substrate: CC(=O)OP(=O)(O)O; type: biochemical, Lactococcus cremoris; conditions: Ac-P to OAc, varying ADP, 5 mM MgSO4, 100 mM HEPES, 400 mM potassium glutamate, pH 7.5
purified protein [4] = substrate: Nc1ncnc2c1ncn2[C@@H]1O[C@H](COP(=O)(O)OP(=O)(O)OP(=O)(O)O)[C@@H](O)[C@H]1O; type: biochemical, Lactococcus cremoris; conditions: OAc to Ac-P, varying acetate, 4.2 mM MgCl2, 100 mM HEPES, 400 mM potassium glutamate, pH 7.5

Protein	Km (purified protein [1])	kcat (purified protein [1]) [s⁻¹]	Km (purified protein [2])	kcat (purified protein [2]) [s⁻¹]	Km (purified protein [3])	Km (purified protein [4])	kcat (purified protein [4]) [s⁻¹]
B1	22.07 (1.05) mM	3234	0.94 (0.09) mM	1033	0.35 (0.02) mM	0.086 (0.0078) mM	3234
B2	1.87 (0.29) mM	394	1.15 (0.12) mM	282	0.086 (0.02) mM	0.21 (0.12) mM	394
